Consider three molecules from patent US20200239578A1 (Eli Lilly, published 2020).

Test [1] concerns the target T1, murine (Balbc) BTLA protein (immobilised on the Biacore chip) (mouse (Balbc), UniProt Q7TSA3 30-183, limits assumed).
T1 construct: also called Mouse Balbc BTLA
T1 chain: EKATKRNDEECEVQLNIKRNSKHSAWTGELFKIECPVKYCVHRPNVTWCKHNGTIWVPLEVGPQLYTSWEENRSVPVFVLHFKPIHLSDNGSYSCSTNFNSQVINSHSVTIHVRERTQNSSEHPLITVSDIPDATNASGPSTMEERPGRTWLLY
Kind of test: SPR (Biacore 3000), BTLA amine-coupled to the chip, antibody flowed. On the procedure:
(§1) The binding affinity and kinetics of the BTLA agonist antibodies of the present invention (22B3, 23C8, and 25F7) to BTLA are measured by surface plasmon resonance using Biacore® 3000 (GE Healthcare). […] The experiments are carried out at 25° C. in HBS-EP buffer (GE Healthcare BR100669; 10 mM HEPES, 150 mM NaCl, 3 mM EDTA, 0.05% surfactant P20, pH 7.4). For each cycle, 250 μL antibody sample is flowed through flow cell 1 and 2 at 50 μ1/min, and then dissociated for 10 minutes. The chip surface is regenerated with 5 μL injection of glycine buffer at pH 1.5 at […] flow rate. The data are fit to a 1:1 Langmiur binding model to derive kₒₙ, k_{off,} and to calculate KD. Data shown below are the average of three experiments for human, cyno, rat and murine for 22B3.
In general terms: SPR reads the build-up and loss of mass on a sensor chip optically.

Test [2] addresses T2, murine (C57BL6) BTLA protein (immobilised on the Biacore chip) (mouse (C57BL6), UniProt Q7TSA3 30-183, limits assumed).
T2 construct: also called Mouse C57BL6 BTLA
T2 chain: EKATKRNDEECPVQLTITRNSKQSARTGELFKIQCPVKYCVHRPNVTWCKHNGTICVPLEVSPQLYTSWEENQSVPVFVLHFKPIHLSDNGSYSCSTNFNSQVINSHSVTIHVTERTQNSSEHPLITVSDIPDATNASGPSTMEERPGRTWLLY
Described as above. How it is done: as §1

Test [3] has as its target T3, cynomolgus monkey BTLA on cyno PBMCs (cynomolgus monkey, UniProt Q7Z6A9 31-289 (human entry)).
T3 construct: Endogenous BTLA on primary cells; also called cynomolgus monkey BTLA-expressing cells
T3 chain: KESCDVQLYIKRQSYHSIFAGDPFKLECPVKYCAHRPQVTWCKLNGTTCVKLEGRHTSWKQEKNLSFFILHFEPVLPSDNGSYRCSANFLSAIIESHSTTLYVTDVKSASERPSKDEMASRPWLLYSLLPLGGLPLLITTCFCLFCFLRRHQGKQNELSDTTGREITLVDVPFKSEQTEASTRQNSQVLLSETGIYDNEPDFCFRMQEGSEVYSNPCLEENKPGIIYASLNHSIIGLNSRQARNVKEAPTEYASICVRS
Kind of test: flow cytometry (FACS) on primary cells. On the procedure: (§2) Isolated primary cells are quantified using a Countess cell counter, and resuspended at 2×10⁶ cells per ml in FACS buffer. Flow cytometry experiments is performed the same day as cell isolation by plating 50 μl (˜0.1×10⁶) cells into a 96 well plate (Greiner #650101). Non-specific antibody binding is prevented by adding 1 μl Fc block (for example, from BD #553142) for 15 minutes at 4 ° C. without washing.
(§3) BTLA antibody binding is tested at various concentrations, by serial dilution in FACS buffer. For example, a purified antibody and controls starting at different concentrations are first diluted to 30 μg/mL and serial 1:3 dilutions of the starting material is performed for a total of 10 titrations (plus untreated control). Antibody titrations are incubated with cells for 20 minutes at 4° C., and washed with FACS buffer prior to stain. Cells are stained using fluorochrome-conjugated antibodies to identify specific cell types (eg. CD19 B cells, CD4 T cells or CD8 T cells) or using a secondary antibody to identify the presence or absence of antibody binding to that subset. Staining is performed for 20 minutes at 4° C. and washed 3 times with FACS buffer prior to analysis on a flow cytometer. Results are analyzed using standard FACS analysis software (eg. FACSDiva) and reported as mean fluorescent intensity of the secondary antibody for each titration. A positive result, which indicates binding, is determined by mean fluorescent intensity staining above background.
Background: Flow cytometry measures light scatter and fluorescence of single cells or particles in a stream.

The target of test [4] is human BTLA on human cells (PBMCs, Ramos.2G6.4C10 B cell line, primary B cells) (human, UniProt Q7Z6A9 31-289). Put plainly: cell-based or functional assay.
The target of test [5] is T4, cynomolgus monkey BTLA protein (immobilised on the Biacore chip) (cynomolgus monkey, limits assumed).
T4 construct: also called Cyno BTLA
T4 chain: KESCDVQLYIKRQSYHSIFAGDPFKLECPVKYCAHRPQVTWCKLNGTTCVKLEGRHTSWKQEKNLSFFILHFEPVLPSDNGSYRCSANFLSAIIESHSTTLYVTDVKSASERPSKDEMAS
Kind of test: SPR (Biacore 3000), BTLA amine-coupled to the chip, antibody flowed, 25 C, 1:1 Langmuir fit. How it is done: as §1

Test [6] has as its target T5, human BTLA protein (immobilised on the Biacore chip) (human, UniProt Q7Z6A9 31-150, limits assumed).
T5 construct: also called B and T Lymphocyte Attenuator; CD272
T5 sequence: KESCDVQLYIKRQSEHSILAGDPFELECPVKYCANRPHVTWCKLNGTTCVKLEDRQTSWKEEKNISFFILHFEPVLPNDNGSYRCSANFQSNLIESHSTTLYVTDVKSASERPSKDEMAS
The description is as above. On the procedure:
as §1

Test [7] has as its target T6, mouse BTLA on splenocytes of C57BL6 mice (mouse (C57BL6), UniProt Q7TSA3 30-306).
T6 construct: Endogenous BTLA on primary cells; also called mouse BTLA-expressing cells
T6 sequence: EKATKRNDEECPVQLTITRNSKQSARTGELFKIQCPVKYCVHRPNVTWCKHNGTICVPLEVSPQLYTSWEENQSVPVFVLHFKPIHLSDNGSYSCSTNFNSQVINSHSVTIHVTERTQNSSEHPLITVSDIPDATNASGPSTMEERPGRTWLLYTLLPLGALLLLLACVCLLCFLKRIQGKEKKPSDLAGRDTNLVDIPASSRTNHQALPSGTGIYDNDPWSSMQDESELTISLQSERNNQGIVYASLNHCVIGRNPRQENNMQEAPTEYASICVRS
Put plainly: flow cytometry (FACS) on primary cells. On the procedure: as §2, §3

Test [8] addresses T7, rat BTLA protein (immobilised on the Biacore chip) (rat, UniProt Q6PNM1 30-183, limits assumed).
T7 sequence (looked up): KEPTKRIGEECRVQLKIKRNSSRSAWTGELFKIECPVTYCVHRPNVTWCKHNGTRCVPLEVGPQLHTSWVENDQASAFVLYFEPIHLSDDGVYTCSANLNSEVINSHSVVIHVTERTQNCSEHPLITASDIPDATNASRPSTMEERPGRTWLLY
Put plainly: SPR (Biacore 3000), BTLA amine-coupled to the chip, antibody flowed, 25 C, 1:1 Langmuir fit. How it is done:
as §1

Test [9] concerns the target T1, murine (Balbc) BTLA protein …. Described as above. How it is done: as §1
In test [10] the target is T2, murine (C57BL6) BTLA protein …. Described as above. How it is done: as §1

B1: Antibody 23C8 (antibody, human IgG4 S228P, kappa, F234A L235A, V domains shown)
VH: EVQLVESGGGLVQPGGSLRLSCAASGFDISKYNIQWVRQAPGKGLEWVGFINYGGSAYYASRAKGRFTISRDDSKNSLYLQMNSLKTEDTAVYYCARGLSNSDLWGQGTLVTVSS
VL: DIQMTQSPSSLSASVGDRVTITCQASQSISSWLSWYQQKPGKAPKLLIYRASTLASGVPSRFSGSGSGTDFTFTISSLQPEDIATYYCQSTYGGVVGSTSDDNPFGGGTKVEIKR
notes: also called BTLA agonist antibody 23C8
In general, Kd refers to the constant that tells how readily two partners part at equilibrium. What is called koff is the first-order rate constant of dissociation. The kon is a measure of how fast the partners come together. As to B1, the binding result in [1] is “no binding”; in [2], “no binding”; in test [3], “binds”. Moreover, in test [4], the “IC50 of inhibition of human primary B cell proliferation ([3H]-thymidine)” value stood at 0.14 nM. Moreover, the values for the Kd in [5] and in test [6] were 35.4 nM and 1.93 nM, respectively. Further, the off-rate constant (koff) in [5] was 0.00309 s⁻¹; in test [6], 0.000293 s⁻¹. The on-rate constant (kon) in test [5] stood at 87100 M⁻¹ s⁻¹; in test [6], 159000 M⁻¹ s⁻¹.

B2: Antibody 22B3 (antibody, human IgG4 S228P, kappa, F234A L235A, V domains shown)
VH: QVQLVQSGAEVKKPGASVKVSCKASGFSLSSYGVSWVRQAPGQGLEWMGAISYDGITYYASWAKSRVTMTRDTSTSTVYMELSSLRSEDTAVYYCARGDYYDDYVYVYALDIWGQGTLVTVSS
VL: EIVLTQSPGTLSLSPGERATLSCQASQSISTALAWYQQKPGQAPRLLIYAASTLASGIPDRFSGSGSGTDFTLTISRLEPEDFAVYYCQQGYSSSNLDNVFGGGTKVEIKR
notes: also called humanized 22B3; BTLA agonist antibody 22B3
As for B2, the binding result in test [7] and in test [3] was “binds” in each case. For the same molecule, the “IC50 of inhibition of human primary B cell proliferation ([3H]-thymidine)” value in test [4] came to 0.32 nM. The “IC50 of inhibition of human primary B cell proliferation ([3H]-thymidine), similar experiment beside Mab8D5” value in test [4] worked out at 0.32 nM. In addition, in [4], the “fold increase in tyrosine phosphorylation of BTLA over background compared to negative control (Ramos B cell line, MSD)” value was 2.41 fold. In addition, the Kd in test [8] amounted to 24.1 nM; in [5] it was 0.27 nM; in test [6] it was 0.365 nM; in test [9], 32.5 nM; in test [10], 147 nM. The off-rate (koff) in test [8] was determined as 0.0462 s⁻¹; in test [5], 0.000647 s⁻¹; in test [6], 0.00219 s⁻¹; in test [9], 0.0858 s⁻¹; in test [10], 0.265 s⁻¹. Further, the association rate constant (kon) in test [8] turned out to be 2.1e+06 M⁻¹ s⁻¹; in test [5], 2.45e+06 M⁻¹ s⁻¹; in test [6] it was 5.87e+06 M⁻¹ s⁻¹; in [9], 2.6e+06 M⁻¹ s⁻¹; in test [10], 1.89e+06 M⁻¹ s⁻¹.

B3: Antibody 25F7 (antibody, human IgG4 S228P, kappa, F234A L235A, V domains shown)
VH: QVQLVQSGAEVKKPGASVKVSCKASGFSLSTYAMNWVRQAPGQGLEWMGIISDDGTTYYATWAKGRVTMTRDTSTSTVYMELSSLRSEDTAVYYCARDAGAGGVQDYLTLWGQGTLVTVSS
VL: DIVMTQSPDSLAVSLGERATINCQASENIYNFLAWYQQKPGQPPKLLIYSASTLASGVPDRFSGSGSGTDFTLTISSLQAEDVAVYYCQQGSSNSNIDNPFGGGTKVEIKR
notes: also called BTLA agonist antibody 25F7
As for B3, the binding result in test [7] is “binds”. Also, in test [3], the binding result is listed as “binds”. For the same molecule, in [4], the “IC50 of inhibition of human primary B cell proliferation ([3H]-thymidine)” value is 0.17 nM and the “fold increase in tyrosine phosphorylation of BTLA over background compared to negative control (Ramos B cell line, MSD)” value was found to be 1.47 fold. In [6], this molecule came in with a dissociation constant Kd of 206 nM, a koff of 0.0142 s⁻¹ and an association rate constant (kon) of 68600 M⁻¹ s⁻¹. In test [10], the Kd turned out to be 4.63 nM, the koff is 0.00035 s⁻¹ and the on-rate (kon) is 77000 M⁻¹ s⁻¹.
